Reference: patent US20260232800A1 (ADAPTIMMUNE, published 2026)

Molecular target: complex of PRAME peptide … (SEQ ID NO: 1) and HLA-A*02:01, presented on peptide-pulsed T2 cells (human)
Test: cell-based or functional assay

| Binder | EC50 (peptide concentration required to induce half-maximal T-cell activation; IFNγ supernatant ELISA, transduced primary T cells with peptide-pulsed T2 cells) |
| --- | --- |
| TCR 3 (ADB02780_025) (TCR, V domains shown) V domain 1: GQQLNQSPQSMFIQEGEDVSMNCTSSSIFNTWLWYKQDPGEGPVLLIALYKAGELTSNGRLTAQFGITRKDSFLNISASIPSDVGIYFCAGQASGTYKYIFGTGTRLKVLA V domain 2: EAQVTQNPRYLITVTGKKLTVTCSQNMNHEYMSWYRQDPGLGLRQIYYSINVEVTDKGDVPEGYKVSRKEKRNFPLILESPSPNQTSLYFCASSHGTSGEQYFGPGTRLTVT | -7.8 log10 M |
| TCR 4 (ADB02780_062) (TCR, V domains shown) V domain 1: GQQLNQSPQSMFIQEGEDVSMNCTSSSIFLTWLWYKQDPGEGPVLLIALYKAGELTSNGRLTAQFGITRKDSFLNISASIPSDVGIYFCAGQASGTYKYIFGTGTRLKVLA V domain 2: EAQVTQNPRYLITVTGKKLTVTCSQNMNHEYMSWYRQDPGLGLRQIYYSINVEVTDKGDVPEGYKVSRKEKRNFPLILESPSPNQTSLYFCASSHGTSGEQYFGPGTRLTVT | -8.7 log10 M |
| TCR 5 (ADB02780_063) (TCR, V domains shown) V domain 1: GQQLNQSPQSMFIQEGEDVSMNCTSSSIFETWLWYKQDPGEGPVLLIALYKAGELTSNGRLTAQFGITRKDSFLNISASIPSDVGIYFCAGQASGTYKYIFGTGTRLKVLA V domain 2: EAQVTQNPRYLITVTGKKLTVTCSQNMNHEYMSWYRQDPGLGLRQIYYSINVEVTDKGDVPEGYKVSRKEKRNFPLILESPSPNQTSLYFCASSHGTSGEQYFGPGTRLTVT | -8.8 log10 M |
| TCR 6 (ADB02780_070) (TCR, V domains shown) V domain 1: GQQLNQSPQSMFIQEGEDVSMNCTSSSIFVTWLWYKQDPGEGPVLLIALYKAGELTSNGRLTAQFGITRKDSFLNISASIPSDVGIYFCAGQASGTYKYIFGTGTRLKVLA V domain 2: EAQVTQNPRYLITVTGKKLTVTCSQNMNHEYMSWYRQDPGLGLRQIYYSINVEVTDKGDVPEGYKVSRKEKRNFPLILESPSPNQTSLYFCASSHGTSGEQYFGPGTRLTVT | -8.8 log10 M |
| TCR 7 (ADB02780_077) (TCR, V domains shown) V domain 1: GQQLNQSPQSMFIQEGEDVSMNCTSSSIFHTWLWYKQDPGEGPVLLIALYKAGELTSNGRLTAQFGITRKDSFLNISASIPSDVGIYFCAGQASGTYKYIFGTGTRLKVLA V domain 2: EAQVTQNPRYLITVTGKKLTVTCSQNMNHEYMSWYRQDPGLGLRQIYYSINVEVTDKGDVPEGYKVSRKEKRNFPLILESPSPNQTSLYFCASSHGTSGEQYFGPGTRLTVT | -8.7 log10 M |
| TCR 8 (ADB02780_106) (TCR, V domains shown) V domain 1: GQQLNQSPQSMFIQEGEDVSMNCTSSSIFATWLWYKQDPGEGPVLLIALYKAGELTSNGRLTAQFGITRKDSFLNISASIPSDVGIYFCAGQASGTYKYIFGTGTRLKVLA V domain 2: EAQVTQNPRYLITVTGKKLTVTCSQNMNHEYMSWYRQDPGLGLRQIYYSINVEVTDKGDVPEGYKVSRKEKRNFPLILESPSPNQTSLYFCASSHGTSGEQYFGPGTRLTVT | -7.8 log10 M |
| TCR 9 (ADB02780_107) (TCR, V domains shown) V domain 1: GQQLNQSPQSMFIQEGEDVSMNCTSSSIFMTWLWYKQDPGEGPVLLIALYKAGELTSNGRLTAQFGITRKDSFLNISASIPSDVGIYFCAGQASGTYKYIFGTGTRLKVLA V domain 2: EAQVTQNPRYLITVTGKKLTVTCSQNMNHEYMSWYRQDPGLGLRQIYYSINVEVTDKGDVPEGYKVSRKEKRNFPLILESPSPNQTSLYFCASSHGTSGEQYFGPGTRLTVT | -7.8 log10 M |
